The test has as its target SBD641 (384-641), full-length substrate-binding domain of human Hsp70 with the interdomain linker (human) (UniProt P0DMV8). Put plainly: native MS; nESI-MS of SBD641 with NR peptide at 1:1 molar ratio, 150 mM ammonium acetate pH 7.4, sample cone voltage 60 V (raised for collisional activation).

A value given as a limit tells only on which side of the number the result lay.

Turning to NRLLLTG [NR peptide (NRLLLTG)], the peptide molecules bound per SBD641 dimer is less than 2 and the stoichiometry N was 1.

The term stoichiometry N denotes the number of molecules, sites or subunits per partner or assembly.

The values are drawn from paper PMC3696110, “Hsp70 Oligomerization Is Mediated by an Interaction between the Interdomain Linker and the Substrate-Binding Domain” (PLoS ONE, 2013).
